Target: L1.3 ORF2p-3×FLAG (human, UniProt O00370 1-1275)
Experiment: co-IP; ORF2p-3×FLAG precipitated with anti-FLAG from lysate of HEK293T cells transfected with pTMF3 together with pCMV-3Tag-9, HERC5 or MOV10 vector; ORF1p-T7 detected by anti-T7 blot, band intensities given as ORF1p/ORF2p ratio relative to the control; pTMH3 as negative control
Details: partners not purified

Chain of L1.3 ORF2p-3×FLAG (O00370 whole entry): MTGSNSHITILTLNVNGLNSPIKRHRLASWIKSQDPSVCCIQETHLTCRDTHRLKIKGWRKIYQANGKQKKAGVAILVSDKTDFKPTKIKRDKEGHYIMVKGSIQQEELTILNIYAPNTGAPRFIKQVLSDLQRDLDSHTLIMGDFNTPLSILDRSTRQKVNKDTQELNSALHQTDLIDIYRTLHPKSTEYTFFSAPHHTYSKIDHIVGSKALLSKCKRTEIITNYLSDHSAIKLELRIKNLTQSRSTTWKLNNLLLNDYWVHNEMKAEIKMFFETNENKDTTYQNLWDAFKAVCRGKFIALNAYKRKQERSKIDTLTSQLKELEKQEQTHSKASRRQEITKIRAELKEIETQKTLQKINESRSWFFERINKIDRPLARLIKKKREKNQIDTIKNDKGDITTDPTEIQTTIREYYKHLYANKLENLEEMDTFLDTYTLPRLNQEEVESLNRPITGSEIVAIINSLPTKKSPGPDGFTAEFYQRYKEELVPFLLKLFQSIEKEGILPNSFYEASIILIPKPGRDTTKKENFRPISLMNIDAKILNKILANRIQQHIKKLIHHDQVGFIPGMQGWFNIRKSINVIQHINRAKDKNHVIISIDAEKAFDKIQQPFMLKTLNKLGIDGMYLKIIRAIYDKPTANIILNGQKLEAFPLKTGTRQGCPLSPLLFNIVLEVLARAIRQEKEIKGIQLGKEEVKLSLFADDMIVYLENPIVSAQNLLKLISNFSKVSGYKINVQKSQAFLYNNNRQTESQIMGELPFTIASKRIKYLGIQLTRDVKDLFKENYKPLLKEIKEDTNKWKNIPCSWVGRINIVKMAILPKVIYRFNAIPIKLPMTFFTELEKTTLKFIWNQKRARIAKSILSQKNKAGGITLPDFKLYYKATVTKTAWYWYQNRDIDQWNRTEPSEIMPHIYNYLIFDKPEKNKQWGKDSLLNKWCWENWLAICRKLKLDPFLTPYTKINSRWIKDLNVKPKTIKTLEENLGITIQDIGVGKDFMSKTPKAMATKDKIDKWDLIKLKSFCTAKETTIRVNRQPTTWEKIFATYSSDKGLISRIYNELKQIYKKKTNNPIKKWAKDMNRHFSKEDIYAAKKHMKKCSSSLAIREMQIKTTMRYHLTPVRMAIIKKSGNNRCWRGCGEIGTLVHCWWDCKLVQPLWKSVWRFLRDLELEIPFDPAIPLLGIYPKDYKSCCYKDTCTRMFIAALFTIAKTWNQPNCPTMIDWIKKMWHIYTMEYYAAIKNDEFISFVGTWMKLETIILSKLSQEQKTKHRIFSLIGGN

B1: L1.3 ORF1p-T7 (natural protein)
chain: MGKKQNRKTGNSKTQSASPPPKERSSSPATEQSWMENDFDELREEGFRRSNYSELREDIQTKGKEVENFEKNLEECITRITNTEKCLKELMELKTKARELREECRSLRSRCDQLEERVSAMEDEMNEMKREGKFREKRIKRNEQSLQEIWDYVKRPNLRLIGVPESDVENGTKLENTLQDIIQENFPNLARQANVQIQEIQRTPQRYSSRRATPRHIIVRFTKVEMKEKMLRAAREKGRVTLKGKPIRLTADLSAETLQARREWGPIFNILKEKNFQPRISYPAKLSFISEGEIKYFIDKQMLRDFVTTRPALKELLKEALNMERNNRYQPLQNHAKM
notes: ORF1p of the human LINE-1 element L1.3, expressed from the full-length L1.3 in pTMF3 or pTMH3; residues counted from the first methionine of L1.3 ORF1p; From pTMH3 in the HERC5-3×FLAG IP and from pTMF3 in the ORF2p-3×FLAG IP; source: HEK293T, transfected, in lysate
- decrease of the ORF1p/ORF2p ratio in the ORF2p-3×FLAG IP with HERC5 overexpression, against the empty vector: ~60%

From paper PMC13128273, “The interferon-stimulated gene product HERC5 inhibits human LINE-1 retrotransposition with an ISGylation-independent mechanism” (Nucleic Acids Research, 2026)
